In the nanobody polyreactivity screen of Harvey et al. (2022):

Assay: yeast display, Sf9 membrane polyspecificity reagent, FACS + sequencing; frameworks hold sequencing errors
In short: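 In a synthetic yeast display library (Saccharomyces cerevisiae BJ5465), nanobody expression was induced with galactose for 36–48 hours. FACS gates were set low and high (top ~1%) using anti-HA fluorescence for expression and streptavidin fluorescence for binding of the Sf9 membrane reagent. Each polyreactivity label is drawn from the gate of origin.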

Sequence	polyreactivity (PSR sort gate)
QVQLVESGGGLVQAGGSLRLSCAASGYTFKTYAMGWYIQAPGKERELVAAISGSGGSTYYADSVMGRFTISRDNAKNTVYLQLKSLKPEDTEVYYCAATNWWGTEYDYWGQGTQVTVSS	high polyreactivity
QVQLVESGGGLVQAGGSLRLSCAASGYTFLGYAMGWYRQAPGKERELVAAIRRSGGRTYYADSVKGRFTISRDNAKNTVYLQMNSLKPEDTAVYYCAKGYVGEYDYWGQGTQVTVSS	high polyreactivity
QVQLVESGGGLVQAGGSLRLSCAASGYTFNKNTMGWYRQAPGKERELVAAISSSGGRTYYADSVKGRFTISRDNAKNTVYLQMNSLKPEDTAVYYCAARGYFKIHEYDYWGQGTQVTVSS	high polyreactivity
QVQLVESGGGLVQAGGSLRLSCAASGYTFPLYALGWYRQAPGKERELVADINIGGASTYYADSVKGRFTISRDNAKNTVYLQMNSLKPEDTAVYYCAKEYYDGFFPTFDYDYWGQVTQVTVSS	low polyreactivity
QVQLVESGGGLVQAGGSLRLSCAASGYTFPLYAMGWYRQAPGKERELVADINIGGASTYYADSVKGRFTISRDNAKNTVYLQKNSLKPEDTAVYYCAKEYYDGYFPTFDSDYWGQGTQVTVSS	low polyreactivity
QVQLVESGGGLVQAGGSLRLSCAASGYTFQPYTMGWYRQAPGKERELVAAISKSGTRTYYADSVKGRFTISRDNEKNTVYLQMNSLKPEDTAVYYCAARYTGFLFDYWGQGTQVTVSS	high polyreactivity
QVQLVESGGGLVQAGGSLRLSCAASGYTFQYNDMGWYRQAPGKERELVAGISIGGSTNYADSVKGRFTISRDNAKNTVYLQMNSLKPEDTAVYYCAARTLWFPGTTSTSVGYKYGYWGQGTQVTVSS	low polyreactivity
QVQLVESGGGLVQAGGSLRLSCAASGYTFRAYVMGWYRQAPGKERELVAGITRRGGTTYYADSVKGRFTISRDNAKNTVYLQMNSLKTEDTAVYYCNAVYRSGSIPYDSWGQGTQVTVSS	high polyreactivity
QVQLVESGGGLVQAGGSLRLSCAASGYTFRFNAMGWYRQAPGKEREFVAAIDFGGAGTYYADSVKGRFTISRDNAKNTVYLQMNSLKPEVTAVYYCNARDGVTTEFDYWGQGTQVTVSS	low polyreactivity
QVQLVESGGGLVQAGGSLRLSCAASGYTFRHYAMGWYRQAPGKERELVAAISRSGGRTYYADSVKGRFTISRDNAKNTVYLHMNSLKPEDTAVYYCAADRVFGSSYLSGFDYWGQGTQGTVSS	low polyreactivity
QVQLVESGGGLVQAGGSLRLSCAASGYTFRSYAMGWYRQAPGKEWEFVASISSSGGSTYYADSVKGRFTISRDNAKNTVYLQMNSLKPEDTAVYYCAASVVSYPYDEYDYWGQGTQVTVSS	low polyreactivity
QVQLVESGGGLVQAGGSLRLSCAASGYTFRTNVMGWYRPAPGKVWELVATINWRGGSTYYADSVKGRFTISRDNAKNTVYLQMNSLKPEDTAVYYCAKSYRYYRTMDYWGQGTQVTVSS	low polyreactivity
QVQLVESGGGLVQAGGSLRLSCAASGYTFRYAMGWYRQAPGKERELVAAISSRGSSTYYADSVKGRFTISRDNAKNTVYLQMNSLKPEDTAVYYCAAKHFVKGDYWGQGTQVTVSS	high polyreactivity
QVQLVESGGGLVQAGGSLRLSCAASGYTFRYYAMGWYRQAPGKERELVAAISSGGSTYYADSVKGRFTISRDNAKNTVYLQMNSLKPEDTAVYYCATGPRIRYDYWGQGTQVTVSS	high polyreactivity
QVQLVESGGGLVQAGGSLRLSCAASGYTFRYYGMGWYRQAPGKERELVADINSNGVRTYYADSVKGRFTISRDNAKNTVYLQMNSLKPEDTAVYYCNKDWGRYRYDYWGQGTQVNVSS	high polyreactivity
QVQLVESGGGLVQAGGSLRLSCAASGYTFRYYVMGWYRQAPGKERELVATISRGGRTNYADSVKGRFTISRDNAKNTVYLQMNSLKPEDTAVYYCNADWSRVPYRYDYWGQGTQVTVSS	high polyreactivity
QVQLVESGGGLVQAGGSLRLSCAASGYTFSANADMGWYRQAPGKESELVAAITGSGGITYYADSVKGRFTISRDNAKNTVYLQMNSLKPEDTAVYYCAAAVVDAAFDYWGQGTQVTVSS	low polyreactivity
QVQLVESGGGLVQAGGSLRLSCAASGYTFSFYAMGWYRQATGKERELVAAISRSGGSTYYADSVKGRFTISRDNAKNTVYLQMNSLKPEDTAVYYCAARWPGAYHEYGYWGQGTQVTVSS	high polyreactivity
QVQLVESGGGLVQAGGSLRLSCAASGYTFSGYAMGWYRQAPGKERELVAAITSSGGTTYYADSVKGRFTISRDNAKNTVYLQMNSLKPEDTAVYYCNAYYSHYGDTEDYYWGQGTQVTVSS	high polyreactivity
QVQLVESGGGLVQAGGSLRLSCAASGYTFSRNAMGWYRQAPGKERELVAAITGSGGSTYYADSVKGRFTISRDNAKNTVYLQMNSLKPEDTAVYYCATEVKRGYVGFDYWGQGTQVTVSS	low polyreactivity
QVQLVESGGGLVQAGGSLRLSCAASGYTFSWYAMGWYRQAPGKERELVAGIDTSGGSTYYADSVKGRFTISRDNAKNTVYLQMNSLKPEDTAVYYCAAGLLWYSWGFWYYEYGYWGQGTQVTVSS	low polyreactivity
QVQLVESGGGLVQAGGSLRLSCAASGYTFTHNAIGWYRQAPGKERELVATIRNSGSRTYYADSVKGRFTISRDNGKNTVYLQMNSLKPEDTAVYYCAARLLYRHFGYWGQGTQVTVSS	high polyreactivity
